US20130089872A1 (LIVTECH, published 2013)
Substitutions are numbered along the chain they refer to.

Tests used:
[1] = target: Table 9 peptide No. 14; assay: PEPSCAN/CLIPS peptide ELISA, antibody 1 ug/mL
[2] = target: T1, Table 9 peptide No. 26; assay: PEPSCAN/CLIPS peptide ELISA, antibody 1 ug/mL
T1 construct: CLIPS format (inferred); native Cys replaced by Ala as printed
T1 peptide: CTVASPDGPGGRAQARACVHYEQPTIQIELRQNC
Description: 5034 types of the synthesized peptides were covalently bound to PEPSCAN cards (455 peptides/card), and the binding of the synthesized peptides to antibodies was then analyzed by the ELISA method. […] After washing, the resultant was allowed to react with a 1000-fold diluted peroxidase-secondary antibody complex at 25° C. for 1 hour. After washing, a substrate solution (a solution containing 2,2′-azino-di-3-ethylbenzthiazoline sulfonate (ABTS) and 2 μL of 3% hydrogen peroxide solution) was added to the reaction solution, followed by a chromogenic reaction for 1 hour. The binding activity of the antibodies was quantified by photographing with a CCD camera and then performing an image analysis.

[3] = target: T2, hmTROP-2-C chimeric protein (human; mouse, UniProt Q8BGV3 140-317); assay: FACS on HEK293 cells constantly expressing hmTROP-2-C
T2 construct: range 140-C-terminus; constitutively expressed on HEK293 cells; signal peptide 1-26 of hTROP-2 left out; also called human/mouse chimeric TROP-2-C; not shown: C-terminal myc/His tag from the vector
T2 sequence: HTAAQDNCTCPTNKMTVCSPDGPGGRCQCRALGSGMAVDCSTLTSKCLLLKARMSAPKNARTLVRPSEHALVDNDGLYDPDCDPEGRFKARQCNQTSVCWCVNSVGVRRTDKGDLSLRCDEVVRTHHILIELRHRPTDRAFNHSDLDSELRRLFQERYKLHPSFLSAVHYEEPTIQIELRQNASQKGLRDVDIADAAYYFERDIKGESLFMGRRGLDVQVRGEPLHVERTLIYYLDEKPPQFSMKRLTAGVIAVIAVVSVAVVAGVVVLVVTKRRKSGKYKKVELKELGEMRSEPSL

[4] = target: T3, hmTROP-2-A chimeric protein (human; mouse, UniProt Q8BGV3 64-317); assay: FACS on HEK293 cells transiently expressing hmTROP-2-A
T3 construct: range 64-C-terminus; transiently expressed on HEK293 cells; also called human/mouse TROP-2-A; not shown: C-terminal myc/His tag from the vector
T3 sequence: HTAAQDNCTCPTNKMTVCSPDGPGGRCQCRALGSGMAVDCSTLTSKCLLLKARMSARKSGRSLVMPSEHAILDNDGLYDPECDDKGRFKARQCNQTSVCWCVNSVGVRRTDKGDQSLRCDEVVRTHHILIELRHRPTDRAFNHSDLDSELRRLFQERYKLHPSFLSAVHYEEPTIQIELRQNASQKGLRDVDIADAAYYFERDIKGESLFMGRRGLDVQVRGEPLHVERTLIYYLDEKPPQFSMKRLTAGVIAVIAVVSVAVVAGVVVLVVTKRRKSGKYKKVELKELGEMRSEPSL

[5] = target: T4, mouse TROP-2 protein (mouse, UniProt Q8BGV3 25-317); assay: FACS on CHO-K1 cells transiently expressing mouse TROP-2
T4 construct: whole, on cells
T4 sequence (looked up): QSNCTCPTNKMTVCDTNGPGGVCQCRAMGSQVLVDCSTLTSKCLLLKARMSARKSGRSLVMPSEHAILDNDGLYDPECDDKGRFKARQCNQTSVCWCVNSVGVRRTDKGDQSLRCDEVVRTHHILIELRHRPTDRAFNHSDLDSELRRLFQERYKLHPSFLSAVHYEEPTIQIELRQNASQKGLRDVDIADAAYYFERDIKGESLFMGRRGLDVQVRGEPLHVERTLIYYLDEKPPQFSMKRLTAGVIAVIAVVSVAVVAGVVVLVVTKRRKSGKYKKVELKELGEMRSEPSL
Excerpt: (§1) Specifically, each of an expression vector (mouse TROP-2-pcDNA3.1(+), furnished by the Institute of Molecular and Cellular Biosciences, the University of Tokyo) comprising the full-length cDNA of a mouse TROP-2 gene (GenBank accession No. NM_{—}020047, Y08830), and an expression vector (pcDNA3.1-hEpCAM-myc/His) comprising the full-length cDNA of a human TROP-1/EpCAM gene (GenBank accession No. NM_{—}002354), was transiently introduced into CHO-K1 cells, using Lipofectamine2000 reagent (Invitrogen). Thereafter, 24 to 48 hours later, the cells were removed from a culture dish by treating them with trypsin, and a cell suspension was then prepared. The thus prepared cell suspension was successively reacted with the produced anti-hTROP-2 monoclonal antibody (0.1 μg) and with PE-labeled anti-mouse IgG, and it was then analyzed by FACSCalibur.

[6] = target: T5, human TROP-2 (hTROP-2) protein (human, UniProt P09758 27-323); assay: FACS on PK-59 cells (endogenous hTROP-2), 0.1 ug antibody
T5 construct: also called Tacstd2; GA733-1
T5 sequence: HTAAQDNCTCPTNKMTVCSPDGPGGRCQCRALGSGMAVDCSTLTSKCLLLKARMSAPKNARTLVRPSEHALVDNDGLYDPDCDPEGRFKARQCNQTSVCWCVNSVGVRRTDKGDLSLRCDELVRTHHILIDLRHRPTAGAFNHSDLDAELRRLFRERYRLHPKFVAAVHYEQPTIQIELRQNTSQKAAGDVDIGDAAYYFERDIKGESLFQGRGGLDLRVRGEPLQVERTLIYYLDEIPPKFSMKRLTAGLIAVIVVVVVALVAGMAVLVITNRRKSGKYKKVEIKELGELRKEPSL
Description: (§2) Cancer cells were removed from a culture dish by a trypsin treatment, and a cell suspension was then prepared (cell density: 2×10⁶ cells/mL). An anti-hTROP-2 monoclonal antibody (0.1 μg) was added to 100 μL of the cell suspension, and they were then reacted at 4° C. for 20 minutes. The reaction solution was washed with PBS, and it was then reacted with PE-labeled anti-mouse IgG (BD Biosciences Pharmingen) (0.1 μg) (at 4° C. for 30 minutes). Thereafter, the resultant was analyzed by FACSCalibur (Becton, Dickinson and Company).

[7] = target: T5, human TROP-2 (hTROP-2) protein; assay: FACS on BxPC-3 cells (endogenous hTROP-2), 0.1 ug antibody
Description: as §2

[8] = target: T6, human TROP-1/EpCAM protein (human, UniProt P16422 24-314); assay: FACS on CHO-K1 cells transiently expressing human EpCAM/TROP-1
T6 construct: whole, on cells; vector adds a C-terminal myc/His tag; also called human EpCAM/TROP-1; hEpCAM
T6 sequence (looked up): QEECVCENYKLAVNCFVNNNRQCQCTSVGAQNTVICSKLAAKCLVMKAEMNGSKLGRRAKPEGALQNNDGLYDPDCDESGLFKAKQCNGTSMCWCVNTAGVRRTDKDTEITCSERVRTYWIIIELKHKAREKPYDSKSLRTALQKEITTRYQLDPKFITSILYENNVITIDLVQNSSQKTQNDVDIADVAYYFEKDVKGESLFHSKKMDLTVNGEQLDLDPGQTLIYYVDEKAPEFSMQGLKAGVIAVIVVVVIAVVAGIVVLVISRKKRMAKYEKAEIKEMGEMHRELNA
Excerpt: as §1

[9] = target: T7, recombinant protein of the extracellular region of hTROP-2 (human, UniProt P09758 27-263); assay: equilibrium competition ELISA (Djavadi-Ohaniance method), recombinant hTROP-2
T7 construct: made with baculovirus, purified on Ni Sepharose; also called purified recombinant hTROP-2 protein; hTROP-2 EC; not shown: C-terminal myc/His tag from the pcDNA4/myc-His A vector
T7 sequence: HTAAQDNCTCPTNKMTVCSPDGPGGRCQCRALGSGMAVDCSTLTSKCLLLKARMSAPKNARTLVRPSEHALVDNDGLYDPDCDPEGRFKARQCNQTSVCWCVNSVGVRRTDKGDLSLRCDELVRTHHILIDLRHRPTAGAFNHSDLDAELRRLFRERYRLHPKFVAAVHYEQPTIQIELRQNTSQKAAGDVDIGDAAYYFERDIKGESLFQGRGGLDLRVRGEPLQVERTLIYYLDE
Description: The antigen binding affinity (Kd value) of the generated anti-hTROP-2 monoclonal antibody was calculated by a method using ELISA (Djavadi-Ohaniance L. et al (1996), In Antibody Engineering, Chapter 4, pp. 77-97. IRL Press, Oxford).
Specifically, the purified recombinant hTROP-2 protein (0.1 μg/mL) was added to a 96-well culture plate (Corning) so that the antigen was solid-phased (at room temperature for 1 hour, or at 4° C. overnight). Subsequently, the resultant was washed with PBS three times, and 2% skim milk (PBS solution) was then added thereto to block it (at room temperature for 1 hour). The resultant was washed with PBS twice. […] The reaction product was washed with PBS three times, and it was then reacted with HRP-labeled anti-mouse IgG (final concentration: 1 μg/mL) (GE Healthcare Biosciences) diluted with a blocking solution (at room temperature for 1 hour). Subsequently, the reaction product was washed with a 0.1% Tween20-PBS solution three times, and a TMB (3,3′,5,5′-tetramethylbenzidine: SIGMA) substrate solution was then added to the resultant to carry out a color reaction. Then, 1 M sulfuric acid was added to the reaction product to terminate the reaction. Using Microplate reader Model 550 (BIO RAD), absorbance was measured.

[10] = target: Table 7 peptide No. 16; assay: PEPSCAN/CLIPS peptide ELISA, antibody 1 ug/mL
[11] = target: Table 7 peptide No. 19; assay: PEPSCAN/CLIPS peptide ELISA, antibody 1 ug/mL

B1: anti-hTROP-2 monoclonal antibody clone K5-116-2-1 (antibody, V domains shown)
VH: QVQLQQPGAELVRPGASVKLSCKASGYTFTSYWITWVKQRPGQGLEWIGNIYPSDSYTNYNQKFRDKATLTVDKSSSTAYMQLSSPTSEDSAVYYCSALFDYWGQGTTLTVSS
VL: DILLTQSPAILSVSPGERVSFSCRASQSIGTSIHWYQQRTNGSPRLLIKYASESISGIPSRFSGSGSGTDFILSINSVESEDIADYYCQQSNSWPFTFGSGTKLEIK
notes: mouse IgG; also called hybridoma FERM BP-11253
With B1 as the binder, how does the binding (PEPSCAN ELISA signal) [1] read?
Its binding (PEPSCAN ELISA signal) is 1440.

And the “binding (PEPSCAN ELISA signal)” value [2]?
Its value is 1220.

Does B1 bind [3]?
Result: binds

Does B1 bind [4]?
Result: binds

Does B1 bind [5]?
Result: no binding (tested: 0.1 ug)

What about the “mean fluorescence intensity relative to secondary antibody only” value [6] of the same binder?
Its value is 122 times.

What about the “mean fluorescence intensity relative to secondary antibody only” value [7] of the same binder?
The value was 121 times.

Does B1 bind [8]?
Result: no binding (tested: 0.1 ug)

And the Kd [9]?
Its Kd is 26.9 pM.

B2: anti-hTROP-2 monoclonal antibody clone K5-70 (antibody, V domains shown)
VH: QVQLQQPGAELVRPGASVKLSCKASGYTFTIYWINWVKQRPGQGLEWIGNIYPSDSYTNYNQKFKDKATLTVDKSSSTAYMQLSSPTSEDSAVYYCTRTSMADYWGQGTTLTVSS
VL: B1 VL with I72T
notes: mouse IgG2a purified from hybridoma ascites; also called K-70; hybridoma FERM BP-11251
With B2 as the binder, how does the binding (PEPSCAN ELISA signal) [10] read?
Its binding (PEPSCAN ELISA signal) is 538.

And the binding (PEPSCAN ELISA signal) [11]?
The binding (PEPSCAN ELISA signal) was 519.

Does B2 bind [3]?
Result: binds

Does B2 bind [4]?
Result: binds

Does B2 bind [5]?
Result: no binding (tested: 0.1 ug)

Does B2 bind [8]?
Result: no binding (tested: 0.1 ug)

What about the Kd [9] of the same binder?
The Kd was 6.8 pM.

B3: anti-hTROP-2 monoclonal antibody clone K5-107 (antibody, V domains shown)
VH: QVQLQQPGSELVRPGASVKLSCKASGYTFTSYWMHWVKQRHGQGLEWIGNIYPGGGYTNYDEKFKSKGTLTVDTSSSTAYMHLSSLTSEDSAVYYCTRSSVFDYWGQGTTLTVSS
VL: B1 VL with S28N, Y36F, I72T
notes: mouse IgG1 purified from hybridoma ascites; also called hybridoma FERM BP-11252
Does B3 bind [5]?
Result: no binding (tested: 0.1 ug)

Does B3 bind [8]?
Result: no binding (tested: 0.1 ug)

B4: anti-hTROP-2 monoclonal antibody clone T6-16 (antibody, V domains shown)
VH: EVQLQQSGPELVKPGASVKISCKASGYTFTDYNMHWVKQSHGKNLEWIGYIYPYNGGTGYNQRFKSRATMTVDKSSSTAYMELRSLTSDDSAVYYCAREDYGSSPSYAMDYWGQGTSVIVSS
VL: DVVMTQTPLSLPVSLGDQASISCRSSQSLVHGNGNTYLHWYLQKPGQSPKLLIYKVSNRFSGVPDRFSGSGSGTDFTLKISRVEAEDLGVYFCSQTTHVPTFGSGTKLEIK
notes: mouse IgG2a purified from hybridoma ascites; also called 16-16; hybridoma FERM BP-11346
Does B4 bind [3]?
Result: no binding

Does B4 bind [5]?
Result: no binding (tested: 0.1 ug)

Does B4 bind [8]?
Result: no binding (tested: 0.1 ug)

And the Kd [9]?
Its Kd is 4.3 pM.
